# Data: patent publication EP4703388A1 (Jiangsu Hengrui Pharmaceuticals Co., Ltd., dated 2024)
# Numbering of substitutions follows the chain as printed.
# T1: cyno TF ECD-His (cTF-his) (monkey (cyno))
# T1 construct: also called bio-cTF-his; monkey TF-His protein
# T1 chain: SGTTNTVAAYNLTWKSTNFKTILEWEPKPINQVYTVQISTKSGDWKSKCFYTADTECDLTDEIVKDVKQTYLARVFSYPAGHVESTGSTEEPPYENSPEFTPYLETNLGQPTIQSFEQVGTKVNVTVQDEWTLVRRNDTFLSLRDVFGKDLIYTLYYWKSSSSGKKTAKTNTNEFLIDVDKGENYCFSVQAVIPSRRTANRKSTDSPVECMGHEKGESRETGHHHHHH
# B1: hu310-10 (antibody, human IgG1, kappa, V domains shown)
# VH: EVQLVQSGAEVKKPGASVKVSCKASGYSFTGYYMNWVRQAPGQGLEWMGEINPSTGGSTYNQKFKARVTLTVDQSTNTAYMELSSLRSEDTAVYYCARRELGGPFGYWGQGTTVTVSS
# VL: SIVMTQSPDSLAVSLGERATINCKASQSVSNGIAWYQQKPGQSPKLLIYFASNRYTGVPDRFSGSGYGTDFTLTISSLQAEDVAVYYCQQDYSSPWTFGGGTKVEIKR
# B2: hu310-5 (antibody, human IgG1, kappa, V domains shown)
# VH: B1 VH with L70M, N77S, A79V
# VL: SIQMTQSPSSLSASVGDRVTITCKASQSVSNGIAWYQQKPGKSPKLLIYFASNRYTGVPSRFSGSGYGTDFTFTISSLQPEDIATYYCQQDYSSPWTFGGGTKVEIKR
# B3: hu310-12 (antibody, human IgG1, kappa, V domains shown)
# VH: B1 VH
# VL: B2 VL with S1D, S43A, Y67S
# B4: hu310-6 (antibody, human IgG1, kappa, V domains shown)
# VH: B1 VH with L70M, N77S, A79V
# VL: B2 VL with N31Q
# B5: hu310-4 (antibody, human IgG1, kappa, V domains shown)
# VH: B1 VH with L70M, N77S, A79V
# VL: B2 VL with S1D, S43A, Y67S
# B6: hu310-9 (antibody, human IgG1, kappa, V domains shown)
# VH: B1 VH
# VL: B1 VL with S1D, S43P, Y67S
# B7: hu310-13 (antibody, human IgG1, kappa, V domains shown)
# VH: B1 VH
# VL: B2 VL
# B8: hu310-11 (antibody, human IgG1, kappa, V domains shown)
# VH: B1 VH
# VL: B1 VL with D9K, S10F, L73F
# B9: hu310-16 (antibody, human IgG1, kappa, V domains shown)
# VH: B1 VH
# VL: B2 VL with N31T
# B10: hu310-15 (antibody, human IgG1, kappa, V domains shown)
# VH: B1 VH
# VL: B2 VL with N31S
# B11: hu310-14 (antibody, human IgG1, kappa, V domains shown)
# VH: B1 VH
# VL: B2 VL with N31Q
# B12: hu310-8 (antibody, human IgG1, kappa, V domains shown)
# VH: B1 VH with L70M, N77S, A79V
# VL: B2 VL with N31T
# B13: hu310-7 (antibody, human IgG1, kappa, V domains shown)
# VH: B1 VH with L70M, N77S, A79V
# VL: B2 VL with N31S
# B14: hu310-3 (antibody, human IgG1, kappa, V domains shown)
# VH: B1 VH with L70M, N77S, A79V
# VL: B1 VL with D9K, S10F, L73F
# B15: hu67-12 (antibody, human IgG1, kappa, V domains shown)
# VH: EVQLQESGPGLVKPSQTLSLTCTVSGFSLTNYGVNWIRQPPRKGLEWIGVIWSRGNTDYNAAFISRVTISKDNSKSQVSLKLSSVTAADTAVYYCARKDAVVATDALDYWGQGTTVTVSS
# VL: DIQMTQSPSSLSASVGDRVTITCKASQDVSTAVAWYQQKPGKAPKLLIYSTSYRYTGVPSRFSGSGSGTDFTFTISSLQPEDIATYYCQQHYSTPYTFGGGTKVEIKR
# B16: hu67-9 (antibody, human IgG1, kappa, V domains shown)
# VH: EVTLKQSGPVLVKPTQTLTLTCTVSGFSLTNYGVNWIRQPPRKALEWLAVIWSRGNTDYNAAFISRLTISKDTSKSQVVLKMTNMDPVDTATYYCARKDAVVATDALDYWGQGTTVTVSS
# VL: B15 VL
# B17: hu67-3 (antibody, human IgG1, kappa, V domains shown)
# VH: B15 VH with R42G, N73T, S76N
# VL: DIVMTQSPKSLAVSLGERATINCKASQDVSTAVAWYQQKPGQPPKLLIYSTSYRYTGVPDRFSGSGSGTDFTLTISSLQAEDVAVYYCQQHYSTPYTFGGGTKVEIKR
# B18: hu67-13 (antibody, human IgG1, kappa, V domains shown)
# VH: B16 VH
# VL: B15 VL with P8H, S9K, S10F, A43S
# B19: hu67-16 (antibody, human IgG1, kappa, V domains shown)
# VH: B15 VH
# VL: B15 VL with P8H, S9K, S10F, A43S
# B20: hu67-7 (antibody, human IgG1, kappa, V domains shown)
# VH: B15 VH with R42G, N73T, S76N
# VL: B17 VL with P43S, L73F
# B21: hu67-10 (antibody, human IgG1, kappa, V domains shown)
# VH: B16 VH with A44G, A49G, T73N
# VL: B15 VL
# B22: hu67-8 (antibody, human IgG1, kappa, V domains shown)
# VH: B15 VH
# VL: B17 VL with P43S, L73F
# B23: hu67-15 (antibody, human IgG1, kappa, V domains shown)
# VH: B15 VH with R42G, N73T, S76N
# VL: B15 VL with P8H, S9K, S10F, A43S
# B24: hu67-1 (antibody, human IgG1, kappa, V domains shown)
# VH: B16 VH
# VL: B17 VL
# B25: hu67-2 (antibody, human IgG1, kappa, V domains shown)
# VH: B16 VH with A44G, A49G, T73N
# VL: B17 VL
# B26: hu67-6 (antibody, human IgG1, kappa, V domains shown)
# VH: B16 VH with A44G, A49G, T73N
# VL: B17 VL with P43S, L73F
# B27: hu67-5 (antibody, human IgG1, kappa, V domains shown)
# VH: B16 VH
# VL: B17 VL with P43S, L73F
# B28: hu10H10-1 (antibody, V domains shown)
# VH: EVQLVQSGAEVKKPGASVKVSCKASGYTFITYWIEWVRQRPGQGLEWMGDILPGSGSTNYNENFKGRVTFTADTSTSTVYMQLSSLRSEDTAVYYCARSGYYGNSGFAYWGQGTLVTVSS
# VL: DIQMTQSPSSLSASVGDRVTITCKSSQSLLSSGNQKNYLTWYQQKPGKAPKLLIYWASTRESGVPSRFSGSGSGTDFTLTISSLQPEDFATYYCQNDYTYPLTFGQGTKLEIK
# notes: H1+L1; Full-length IgG
# B29: hu10H10-19 (antibody, V domains shown)
# VH: B28 VH
# VL: B28 VL with T103S
# notes: H1+L4; Full-length IgG
# Experiments:
# [1] = biological target: T2, human tissue factor (TF) on MDA-MB-231, NCI-H358 and HCT116 cells (human, UniProt P13726 33-295); assay: flow cytometry on MDA-MB-231 cells
# T2 construct: whole, on cells; also called TF antigen; CD142
# [2] = biological target: T3, human TF ECD-His (hTF-his) (human, UniProt P13726 33-251); assay: SPR Biacore T200, antibody on Protein A chip, TF-His as analyte, 1:1 model
# T3 construct: also called bio-hTF-his; human TF-His protein
# [3] = biological target: T1, cyno TF ECD-His (cTF-his); assay: as above
Binder,EC50 [1] [µM],Kd [2] [µM],koff [2] [s⁻¹],kon [2] [M⁻¹ s⁻¹],Kd [3] [µM],koff [3] [s⁻¹],kon [3] [M⁻¹ s⁻¹]
B1,0.00133,–,–,–,–,–,–
B2,0.00155,–,–,–,–,–,–
B3,0.00195,–,–,–,–,–,–
B4,0.00256,–,–,–,–,–,–
B5,0.00211,–,–,–,–,–,–
B6,0.00197,–,–,–,–,–,–
B7,0.00139,–,–,–,–,–,–
B8,0.00176,–,–,–,–,–,–
B9,0.00226,–,–,–,–,–,–
B10,0.00198,–,–,–,–,–,–
B11,0.00176,–,–,–,–,–,–
B12,0.00173,–,–,–,–,–,–
B13,0.00208,–,–,–,–,–,–
B14,0.00183,–,–,–,–,–,–
B15,–,0.0187,0.000731,39200,0.014,0.000468,33400
B16,–,0.0164,0.000564,34500,0.0108,0.000351,32400
B17,–,0.0142,0.000663,46600,0.0135,0.000431,31900
B18,–,0.019,0.000577,30400,0.0109,0.000344,31500
B19,–,0.0192,0.000702,36500,0.0148,0.000478,32200
B20,–,0.0143,0.000584,40800,0.0105,0.00036,34200
B21,–,0.0152,0.000594,39200,0.0089,0.000356,40000
B22,–,0.0171,0.000668,39000,0.0137,0.000446,32500
B23,–,0.0191,0.000638,33400,0.0134,0.000419,31200
B24,–,0.0136,0.000585,42900,0.0148,0.000358,24100
B25,–,0.0158,0.000673,42600,0.0127,0.000429,33700
B26,–,0.0217,0.000652,30000,0.0143,0.000428,29900
B27,–,0.0177,0.000582,32800,0.0151,0.00039,25800
B28,0.00205,–,–,–,–,–,–
B29,0.00235,–,–,–,–,–,–
